# Laboratory results as given in PMC11606422, “MdWRKY31‐MdNAC7 regulatory network: orchestrating fruit softening by modulating cell wall‐modifying enzyme MdXTH2 in response to ethylene signalling”.
# T1: MdNAC7 (Malus domestica, UniProt D9ZJA6 1-263)
# T1 sequence: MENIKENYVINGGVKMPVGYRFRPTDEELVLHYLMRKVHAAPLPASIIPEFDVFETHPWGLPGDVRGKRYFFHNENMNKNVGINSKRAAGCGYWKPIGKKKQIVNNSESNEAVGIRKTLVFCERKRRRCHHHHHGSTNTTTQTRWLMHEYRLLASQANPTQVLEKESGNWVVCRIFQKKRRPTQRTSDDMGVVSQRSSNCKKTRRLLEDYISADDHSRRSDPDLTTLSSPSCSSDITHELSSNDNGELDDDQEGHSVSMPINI
# B1: MdXTH2 promoter probe for MdNAC7 (dsDNA)
# DNA 1: GTAGTACACCATGTGTTATTAT
# DNA 2: ATAATAACACATGGTGTACTAC
# Target: T1, MdNAC7
# Assay: EMSA; LightShift Chemiluminescent EMSA kit, 10 uL, room temperature 30 min, 6% polyacrylamide gel in 0.5x TBE; salt and pH not stated
# Conditions: protein: recombinant; chain copies: 2; label: biotin
binder,measurement,value
B1,binding result,no binding
